Experimental data published in paper doi:10.1101/2023.07.17.549240.

Assays:
[1] = target: T1, WRKY45 (Arabidopsis thaliana, UniProt Q9S763 1-147); assay: EMSA
[2] = target: T1, WRKY45; assay: competition

T1 sequence (Q9S763 whole entry): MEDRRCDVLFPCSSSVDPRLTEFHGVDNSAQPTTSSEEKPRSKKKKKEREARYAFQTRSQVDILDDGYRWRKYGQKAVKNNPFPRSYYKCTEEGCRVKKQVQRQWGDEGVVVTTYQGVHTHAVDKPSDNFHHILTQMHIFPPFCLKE

Row | Binder | binding result [1] | binding result [2]
1 | PCS2 W-box1 (W1) probe (dsDNA) DNA 1: ATTGTCAGAGTTTGACTATGGAGCAAAC DNA 2: GTTTGCTCCATAGTCAAACTCTGACAAT | binds | –
2 | PCS2 mW-box1 probe (dsDNA) DNA 1: ATTGTCAGAGTCGCGGAATGGAGCAAAC DNA 2: GTTTGCTCCATTCCGCGACTCTGACAAT | no binding | –
3 | PCS1 W-box probe (dsDNA) DNA 1: TACAATCCAAATTGACTGTAATTTGTTA DNA 2: TAACAAATTACAGTCAATTTGGATTGTA | no binding | –
4 | PCS2 W-box1 cold competitor (dsDNA) DNA 1: ATTGTCAGAGTTTGACTATGGAGCAAAC DNA 2: GTTTGCTCCATAGTCAAACTCTGACAAT | – | binds
